{"source": "patent US20160244740A1", "about": "“MUTANT CHON[…] I COMPOSITIONS AND METHODS OF THEIR USE” (OHIO STATE INNOVATION FOUNDATION, priority 2013, published 2016)", "key": {"[1]": {"conditions": "in vivo; cited from earlier work"}, "subcutaneous tumors": {"system": "subcutaneous tumors", "conditions": "with adenovirus; cited from earlier work"}, "glioma cells": {"system": "glioma cells", "experiment": "Effect of Chase ABC treatment of glioma cells in vitro on oHSV infection/replication", "type": "cell-based", "from_the_text": "The tumor's extracellular matrix (ECM) can pose a significant barrier for efficient viral spread, thus limiting virotherapy efficacy. Chondroitin sulfate proteoglycans (CSPG) are one of the major components of glioma ECM. Choindroitinase ABC 1 (Chase ABC) is a bacterial enzyme that can depolymerize this ECM scaffold. Chase ABC mediated digestion of glioma CSPG can enhance oHSV dissemination and efficacy. […] This study examines the mechanism and impact of Chase ABC on oncolysis. Reduced virus replication can contribute to limited oncolytic efficacy of oHSV. Several innovative approaches are currently under investigation including transcriptional retargeting of viruses to drive virulence under the control of tumor-specific promoters. rQNestin34.5 is an oHSV that expresses viral ICP34.5 regulated by glioma-specific nestin promoter in an ICP34.5 deleted viral backbone. […] An oHSV expressing the humanized sequence of Chase ABC within the context of rQNestin34.5 can be used. […] The anti-tumor efficacy of the Chase ABC-expressing oHSV in vitro and in vivo, in glioma can be tested. The impact of the Chase ABC-expressing oHSV on tumor immune cell infiltration and responses can also be tested."}, "[2]": {"conditions": "cited from earlier work; for toxicity/hemorrhages/glial reactivity: repeated injections into brains and spinal cords"}, "[3]": {"system": "U87ΔEGFR human glioma spheroids", "experiment": "oHSV spread in organotypic glioma model in presence/absence of Chase ABC", "type": "cell-based", "conditions": "10^4 pfus of rQNestin34.5, presence vs absence of purified Chase ABC, n=3/group", "description": "Briefly U87delta EGFR glioma cell line spheroids on Organotypic brain slice cultures were treated with or without purified Chase and then infected with OV. […] Gli36ΔEGFR mice were inoculated with 1×10^6 viral particles on six days (shown by arrows), and percent survival (FIG. 15A) and tumor volume were followed over the course of the study. U87ΔEGFR mice were also inoculated with 1×10^6 viral particles on six days (shown by arrows), and percent survival (FIG. 15B) and tumor volume were followed over the course of the study. U87ΔEGFR mice were also inoculated with 3×10^5 viral particles once ten days after cell implantation (shown by arrow), and percent survival (FIG. 15C) was followed over the course of the study.\nAs a preliminary result, the effect of Chase ABC treatment on spread by the rQNestin34.5 oHSV was tested in an organotypic glioma model. Briefly, U87ΔEGFR human glioma spheroids (made by the hanging drop method), grown on 300-μm organotypic brain slices from 5-7-day-old mice, were infected with 10^4 pfus of rQNestin34.5, in the presence/absence of Chase ABC. Spread of oHSV in the spheres was visualized by fluorescent imaging of oHSV encoded GFP in infected cells (n=3/group)."}}, "note": "Like-named read-outs stand apart in the source and are kept apart here."}
{"molecule": "collagenase", "values": [{"measurement": "intratumoral hemorrhages", "setting": "[1]", "value": "intratumoral hemorrhages occurred in many tumors"}]}
{"molecule": "hyaluronidase", "values": [{"measurement": "viral spread and therapeutic efficacy", "setting": "subcutaneous tumors", "value": "increased viral spread and therapeutic efficacy"}]}
{"molecule": "Chase ABC: bacterial enzyme, chondroitin-sulfate-ABC endolyase; bacterially produced and purified (Seikagaku Inc) (protein, UniProt P59807 25-1021, looked up) Chondroitin sulfate ABC …: ATSNPAFDPKNLMQSEIYHFAQNNPLADFSSDKNSILTLSDKRSIMGNQSLLWKWKGGSSFTLHKKLIVPTDKEASKAWGRSSTPVFSFWLYNEKPIDGYLTIDFGEKLISTSEAQAGFKVKLDFTGWRAVGVSLNNDLENREMTLNATNTSSDGTQDSIGRSLGAKVDSIRFKAPSNVSQGEIYIDRIMFSVDDARYQWSDYQVKTRLSEPEIQFHNVKPQLPVTPENLAAIDLIRQRLINEFVGGEKETNLALEENISKLKSDFDALNIHTLANGGTQGRHLITDKQIIIYQPENLNSQDKQLFDNYVILGNYTTLMFNISRAYVLEKDPTQKAQLKQMYLLMTKHLLDQGFVKGSALVTTHHWGYSSRWWYISTLLMSDALKEANLQTQVYDSLLWYSREFKSSFDMKVSADSSDLDYFNTLSRQHLALLLLEPDDQKRINLVNTFSHYITGALTQVPPGGKDGLRPDGTAWRHEGNYPGYSFPAFKNASQLIYLLRDTPFSVGESGWNNLKKAMVSAWIYSNPEVGLPLAGRHPFNSPSLKSVAQGYYWLAMSAKSSPDKTLASIYLAISDKTQNESTAIFGETITPASLPQGFYAFNGGAFGIHRWQDKMVTLKAYNTNVWSSEIYNKDNRYGRYQSHGVAQIVSNGSQLSQGYQQEGWDWNRMQGATTIHLPLKDLDSPKPHTLMQRGERGFSGTSSLEGQYGMMAFDLIYPANLERFDPNFTAKKSVLAADNHLIFIGSNINSSDKNKNVETTLFQHAITPTLNTLWINGQKIENMPYQTTLQQGDWLIDSNGNGYLITQAEKVNVSRQHQVSAENKNRQPTEGNFSSAWIDHSTRPKDASYEYMVFLDATPEKMGEMAQKFRENNGLYQVLRKDKDVHIILDKLSNVTGYAFYQPASIEDKWIKKVNKPAIVMTHRQKDTLIVSAVTPDLNMTRQKAATPVTINVTINGKWQSADKNSEVKYQVSGDNTELTFTSYFGIPQEIKLSPLP", "values": [{"measurement": "oHSV infection/replication", "setting": "glioma cells", "value": "does not negatively affect oHSV infection/replication"}, {"measurement": "loss of neurons, alterations of their structure, reactions of glial cells", "setting": "[2]; intracerebral injections, immediately or after five months of treatment", "value": "did not reveal loss of neurons or alterations of their structure nor reactions of glial cells"}, {"measurement": "toxicity/hemorrhages/glial reactivity", "setting": "[2]", "value": "have not been associated with deleterious effects"}, {"measurement": "toxicity/hemorrhages/glial reactivity", "setting": "[2]; listed as purified Chase ABC", "value": "absence of toxicity/hemorrhages/glial reactivity"}, {"measurement": "oHSV spread in spheres (GFP imaging)", "setting": "[3]", "value": "increase in viral spread"}, {"measurement": "oHSV spread in spheres (GFP imaging)", "setting": "[3]; listed as purified Chase ABC", "value": "increased oHSV spread within all three glioma spheroids"}]}
